# Test results published in patent US20110300138A1 (published 2011).
# B1: K1-18 IgG (antibody, V domains shown)
# VH: EVQLVQSGAEVKKPGESLKISCKGSGYSFTNYWIGWVRQMPGKGLEWMGIIYPYDSDTRYSPSFEGQVTISADKSIRTAYLHWSSLKASDTAMYYCVRPRDGSYPYDAFDIWGQGTMVTVSS
# VL: EIVLTQSPGTLSLSPGERATLSCRASQSVSNNYLAWYQQKPGQAPRLLIYGASSRATGIPDRFSGSGSGTDFTLTISRLEPEDFAVYYCQHCGSSLRAFGQGTKVEIKR
# notes: Human IgG1 kappa purified from hetero-hybridoma supernatant; also called human monoclonal autoantibody to the TSHR with TSH agonist activity
# B2: K1-18 Fab (Fab, V domains shown)
# VH: B1 VH
# VL: B1 VL
# B3: K1-70 IgG (antibody, V domains shown)
# VH: EVQLVQSGAEVKKPGQSLKISCKASGYSLTDNWIGWVRQKPGKGLEWMGIIYPGDSDTRYSPSFQGQVTISADKSINTAYLQWSSLKASDTAIYYCVGLDWNYNPLRYWGPGTLVTVSS
# VL: QSVLTQPPSVSAAPGQKVTISCSGSSSDIGSNYVSWYQQFPGTAPKLLIYDNNKRPSAIPDRFSGSKSGTSATLGITGLQTGDEADYYCGTWDSRLGIAVFGGGTQLTVLG
# notes: Human IgG1 lambda purified from hetero-hybridoma supernatant; also called human monoclonal autoantibody to the TSHR with TSH antagonist activity
# B4: K1-70 Fab (Fab, V domains shown)
# VH: B3 VH
# VL: B3 VL
# Tests used:
# [1] = molecular target: T1, human TSH receptor (full length), coated on tubes (human, UniProt P16473 22-764); test: inhibition of 125I-K1-70 Fab (competitor) binding to TSHR coated tubes; 0.1 µg/mL in assay buffer
# T1 construct: TSHR coated tubes as described in WO2004/050708A2; The receptor is full length and held on plastic tubes through a mouse MAb to the TSHR; also called thyroid stimulating hormone receptor
# Method: (§1) Binding inhibition assays were carried out using TSHR coated tubes as described in WO2004/050708A2. […] After aspiration, the tubes were washed and 100 μL of ¹²⁵I-labelled protein (5×10⁴ cpm) added and incubated for 1 hour at room temperature with shaking. The tubes were then aspirated, washed and counted in a gamma counter. Inhibition of labelled protein binding was calculated as 100×[1−(cpm bound in the presence of test material/cpm bound in the presence of control material)].
# [2] = molecular target: T1, human TSH receptor (full length), …; test: inhibition of 125I-K1-70 Fab (competitor) binding to TSHR coated tubes; 3 µg/mL in assay buffer
# Method: as §1
# [3] = molecular target: T1, human TSH receptor (full length), …; test: inhibition of 125I-K1-70 Fab (competitor) binding to TSHR coated tubes; 3 µg/mL in HBD serum pool
# Method: as §1
# [4] = molecular target: T1, human TSH receptor (full length), …; test: inhibition of 125I-K1-70 Fab (competitor) binding to TSHR coated tubes; 30 µg/mL in assay buffer
# Method: as §1
# [5] = molecular target: T1, human TSH receptor (full length), …; test: inhibition of 125I-K1-70 Fab (competitor) binding to TSHR coated tubes; 10 µg/mL in assay buffer
# Method: as §1
# [6] = molecular target: T1, human TSH receptor (full length), …; test: inhibition of 125I-K1-70 Fab (competitor) binding to TSHR coated tubes; 100 µg/mL in assay buffer
# Method: as §1
# [7] = molecular target: T1, human TSH receptor (full length), …; test: inhibition of 125I-K1-70 Fab (competitor) binding to TSHR coated tubes; 0.3 µg/mL in assay buffer
# Method: as §1
# [8] = molecular target: T1, human TSH receptor (full length), …; test: inhibition of 125I-K1-70 Fab (competitor) binding to TSHR coated tubes; 0.1 µg/mL in HBD serum pool
# Method: as §1
# [9] = molecular target: T1, human TSH receptor (full length), …; test: inhibition of 125I-K1-70 Fab (competitor) binding to TSHR coated tubes; 0.003 µg/mL in assay buffer
# Method: as §1
# [10] = molecular target: T1, human TSH receptor (full length), …; test: inhibition of 125I-K1-70 Fab (competitor) binding to TSHR coated tubes; 100 µg/mL in HBD serum pool
# Method: as §1
# [11] = molecular target: T1, human TSH receptor (full length), …; test: inhibition of 125I-K1-70 Fab (competitor) binding to TSHR coated tubes; 0.01 µg/mL in assay buffer
# Method: as §1
# [12] = molecular target: T1, human TSH receptor (full length), …; test: inhibition of 125I-K1-70 Fab (competitor) binding to TSHR coated tubes; 0.003 µg/mL in HBD serum pool
# Method: as §1
# [13] = molecular target: T1, human TSH receptor (full length), …; test: inhibition of 125I-K1-70 Fab (competitor) binding to TSHR coated tubes; 0.01 µg/mL in HBD serum pool
# Method: as §1
# [14] = molecular target: T1, human TSH receptor (full length), …; test: inhibition of 125I-K1-70 Fab (competitor) binding to TSHR coated tubes; 0.03 µg/mL in assay buffer
# Method: as §1
# [15] = molecular target: T1, human TSH receptor (full length), …; test: inhibition of 125I-K1-70 Fab (competitor) binding to TSHR coated tubes; 0.03 µg/mL in HBD serum pool
# Method: as §1
# [16] = molecular target: T1, human TSH receptor (full length), …; test: inhibition of 125I-K1-70 Fab (competitor) binding to TSHR coated tubes; 10 µg/mL in HBD serum pool
# Method: as §1
# [17] = molecular target: T1, human TSH receptor (full length), …; test: inhibition of 125I-K1-70 Fab (competitor) binding to TSHR coated tubes; 0.001 µg/mL in assay buffer
# Method: as §1
# [18] = molecular target: T1, human TSH receptor (full length), …; test: inhibition of 125I-K1-70 Fab (competitor) binding to TSHR coated tubes; 1 µg/mL in assay buffer
# Method: as §1
# [19] = molecular target: T1, human TSH receptor (full length), …; test: inhibition of 125I-K1-70 Fab (competitor) binding to TSHR coated tubes; 30 µg/mL in HBD serum pool
# Method: as §1
# [20] = molecular target: T1, human TSH receptor (full length), …; test: inhibition of 125I-K1-70 Fab (competitor) binding to TSHR coated tubes; 0.3 µg/mL in HBD serum pool
# Method: as §1
# [21] = molecular target: T1, human TSH receptor (full length), …; test: inhibition of 125I-K1-70 Fab (competitor) binding to TSHR coated tubes; 0.001 µg/mL in HBD serum pool
# Method: as §1
# [22] = molecular target: T1, human TSH receptor (full length), …; test: inhibition of 125I-K1-70 Fab (competitor) binding to TSHR coated tubes; 1 µg/mL in HBD serum pool
# Method: as §1
Binder,Inhibition of binding (%) [1] [%],Inhibition of binding (%) [2] [%],Inhibition of binding (%) [3] [%],Inhibition of binding (%) [4] [%],Inhibition of binding (%) [5] [%],Inhibition of binding (%) [6] [%],Inhibition of binding (%) [7] [%],Inhibition of binding (%) [8] [%],Inhibition of binding (%) [9] [%],Inhibition of binding (%) [10] [%],Inhibition of binding (%) [11] [%],Inhibition of binding (%) [12] [%],Inhibition of binding (%) [13] [%],Inhibition of binding (%) [14] [%],Inhibition of binding (%) [15] [%],Inhibition of binding (%) [16] [%],Inhibition of binding (%) [17] [%],Inhibition of binding (%) [18] [%],Inhibition of binding (%) [19] [%],Inhibition of binding (%) [20] [%],further results
B1,83.6,93.3,93,94.5,94,95.3,92.6,51,11.4,96,30.3,-9.4,2.2,63.1,17.2,94.8,5.9,93.1,95.6,77.7,Inhibition of binding (%) [21]: -6.8%; Inhibition of binding (%) [22]: 89.4%
B2,62.9,80.6,82.6,83.2,80.8,86.4,75.9,36.9,5,85.7,16.7,-9.6,-0.8,38.8,7.9,83.2,3.8,79,85.4,63.9,Inhibition of binding (%) [21]: -8.2%; Inhibition of binding (%) [22]: 78.7%
B3,93.5,95.5,96.2,97.7,96.9,97.7,94.2,66.5,27.7,97.7,66.2,-0.8,10.6,89,37.8,96.6,5.5,95.2,97.4,97,Inhibition of binding (%) [21]: -8.8%; Inhibition of binding (%) [22]: 94.1%
B4,92.2,93.5,94.9,95.1,93.6,96.7,92.7,81.9,40,96.3,75.6,2.5,25.3,89,57.2,94.8,11.9,93.5,95.7,91.4,Inhibition of binding (%) [21]: -2.5%; Inhibition of binding (%) [22]: 94.2%
